Assay [1] concerns the target T1, 125I-labeled activated protein C (human, UniProt P04070 43-197; P04070 212-461, radioiodinated with Na[125I] by Iodogen; positions not stated).
T1 construct: Specific activity 1x10^4 cpm/ng
Description: 125I-APC binding to HUVEC monolayers at 4 C, Scatchard analysis. How it is done: At the indicated times, cells were washed and bound radioactivity was measured. […] After washing, bound radioactivity was measured. […] Specific binding was determined as described below.
Monolayers of HUVEC in 24-well microplates (Costar) (1×10⁵ cells per well) were washed twice with EDTA/PBS and once with ice-cold HBSS. […] After washing three times with ice-cold HBSS, cells were released with the EDTA buffer, and the bound radioactivity was measured in a gamma counter (Isodata 500). To determine non-specific, calcium-independent adsorption of radioactivity, the cells were washed with EDTA/PBS and residual radioactivity in the cell pellet was measured. Non-specific binding of radioactivity was consistently less than 5% of the specific binding. The data was analyzed using the Enzfitter program (Elsevier Biosoft, Cambridge, U.K.).

Another assay addresses T2, human protein C (human, UniProt P04070 43-461).
T2 construct: also called PC
Description: summary statement; the direct measurement was 125I-APC on HUVEC, and protein C displaced F1-APC equivalently to APC.

In general, Kd refers to the concentration at which binding is half-saturated.

T1 sequence (P04070 43-197, chain 1 of 2): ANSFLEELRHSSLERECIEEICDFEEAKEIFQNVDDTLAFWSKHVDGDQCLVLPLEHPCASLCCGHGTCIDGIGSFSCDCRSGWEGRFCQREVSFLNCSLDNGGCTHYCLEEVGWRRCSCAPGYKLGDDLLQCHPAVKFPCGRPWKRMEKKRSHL
T1 sequence (P04070 212-461, chain 2 of 2): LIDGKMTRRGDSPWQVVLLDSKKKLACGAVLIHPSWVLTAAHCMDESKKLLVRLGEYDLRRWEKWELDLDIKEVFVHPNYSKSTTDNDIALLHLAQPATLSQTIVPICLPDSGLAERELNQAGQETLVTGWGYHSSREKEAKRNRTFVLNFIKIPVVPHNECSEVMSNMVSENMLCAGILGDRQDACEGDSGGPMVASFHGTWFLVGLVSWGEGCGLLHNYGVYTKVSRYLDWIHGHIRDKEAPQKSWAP
T2 sequence (P04070 43-461): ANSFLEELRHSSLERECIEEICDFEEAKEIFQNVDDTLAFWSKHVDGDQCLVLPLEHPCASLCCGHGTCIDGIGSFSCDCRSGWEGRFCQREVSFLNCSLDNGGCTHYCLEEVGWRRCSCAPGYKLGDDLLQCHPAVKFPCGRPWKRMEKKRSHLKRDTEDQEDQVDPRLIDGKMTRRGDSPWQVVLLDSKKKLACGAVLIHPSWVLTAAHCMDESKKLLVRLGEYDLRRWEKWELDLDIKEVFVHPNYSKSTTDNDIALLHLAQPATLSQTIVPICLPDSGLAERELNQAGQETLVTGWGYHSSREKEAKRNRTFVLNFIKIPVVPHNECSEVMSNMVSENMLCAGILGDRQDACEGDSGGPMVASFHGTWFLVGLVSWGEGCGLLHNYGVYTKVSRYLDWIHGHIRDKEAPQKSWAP

B1: endothelial cell protein C/activated protein C receptor (EPCR), human (receptor)
chain: FCSQDASDGLQRLHMLQISYFRDPYHVWYQGNASLGGHLTHVLEGPDTNTTIIQLQPLQEPESWARTQSGLQSYLLQFHGLVRLVHQERTLAFPLTIRCFLGCELPPEGSRAHVFFEVAVNGSSFVSFRPERALWQADTQVTSGVVTFTLQQLNAYNRTRYELREFLEDTCVQYVQKHISAENTKGSQTSRSYTSLVLGVLVGGFIIAGVAVGIFLCTGGRRC
notes: also called EPCR-1 (clone)
Consider B1, for which the Kd (in assay [1]; with human protein C) was 30 nM in each case.
